Data reported in US20030036631.

Experiments:
[1] = biological target: GST-L3cyto-Y641alone
[2] = biological target: GST-L3cyto-Y667F
[3] = biological target: GST-SiglecBMSL3cyto (wildtype)
[4] = biological target: L3cyto-Y691F

B1: ZAP70 kinase (protein)
chain: MPDPAAHLPFFYGSISRAEAEEHLKLAGMADGLFLLRQCLRSLGGYVLSLVHDVRFHHFPIERQLNGTYAIAGGKAHCGPAELCEFYSRDPDGLPCNLRKPCNRPSGLEPQPGVFDCLRDAMVRDYVRQTWKLEGEALEQAIISQAPQVEKLIATTAHERMPWYHSSLTREEAERKLYSGAQTDGKFLLRPRKEQGTYALSLIYGKTVYHYLISQDKAGKYCIPEGTKFDTLWQLVEYLKLKADGLIYCLKEACPNSSASNASGAAAPTLPAHPSTLTHPQRRIDTLNSDGYTPEPARITSPDKPRPMPMDTSVYESPYSDPEELKDKKLFLKRDNLLIADIELGCGNFGSVRQGVYRMRKKQIDVAIKVLKQGTEKADTEEMMREAQIMHQLDNPYIVRLIGVCQAEALMLVMEMAGGGPLHKFLVGKREEIPVSNVAELLHQVSMGMKYLEEKNFVHRDLAARNVLLVNRHYAKISDFGLSKALGADDSYYTARSAGKWPLKWYAPECINFRKFSSRSDVWSYGVTMWEALSYGQKPYKKMKGPEVMAFIEQGKRMECPPECPPELYALMSDCWIYKWEDRPDFLTVEQRMRACYYSLASKVEGPPGSTQKAEAACA
Decrease in Wild type Phosphorylation [1]: 20% | Decrease in Wild type Phosphorylation [2]: 100% | phosphorylation of wildtype GST-SIGLECBMS-L3cyto (kinase ELISA, anti p-Tyr HRP) [3]: ZAP70 (20%)

B2: JAK3 kinase (protein)
chain: MAPPSEETPLIPQRSCSLLSTEAGALHVLLPARGPGPPQRLSFSFGDHLAEDLCVQAAKASGILPVYHSLFALATEDLSCWFPPSHIFSVEDASTQVLLYRIRFYFPNWFGLEKCHRFGLRKDLASAILDLPVLEHLFAQHRSDLVSGRLPVGLSLKEQGECLSLAVLDLARMAREQAQRPGELLKTVSYKACLPPSLRDLIQGLSFVTRRRIRRTVRRALRRVAACQADRHSLMAKYIMDLERLDPAGAAETFHVGLPGALGGHDGLGLLRVAGDGGIAWTQGEQEVLQPFCDFPEIVDISIKQAPRVGPAGEHRLVTVTRTDNQILEAEFPGLPEALSFVALVDGYFRLTTDSQHFFCKEVAPPRLLEEVAEQCHGPITLDFAINKLKTGGSRPGSYVLRRSPQDFDSFLLTVCVQNPLGPDYKGCLIRRSPTGTFLLVGLSRPHSSLRELLATCWDGGLHVDGVAVTLTSCCIPRPKEKSNLIVVQRGHSPPTSSLVQPQSQYQLSQMTFHKIPADSLEWHENLGHGSFTKIYRGCRHEVVDGEARKTEVLLKVMDAKHKNCMESFLEAASLMSQVSYRHLVLLHGVCMAGDSTMVQEFVHLGAIDMYLRKRGHLVPASWKLQVVKQLAYALNYLEDKGLPHGNVSARKVLLAREGADGSPPFIKLSDPGVSPAVLSLEMLTDRIPWVAPECLREAQTLSLEADKWGFGATVWEVFSGVTMPISALDPAKKLQFYEDRQQLPAPKWTELALLIQQCMAYEPVQRPSFRAVIRDLNSLISSDYELLSDPTPGALAPRDGLWNGAQLYACQDPTIFEERHLKYISQLGKGNFGSVELCRYDPLGDNTGALVAVKQLQHSGPDQQRDFQREIQILKALHSDFIVKYRGVSYGPGRQSLRLVMEYLPSGCLRDFLQRHRARLDASRLLLYSSQICKGMEYLGSRRCVHRDLAARNILVESEAHVKIADFGLAKLLPLDKDYYVVREPGQSPIFWYAPESLSDNIFSRQSDVWSFGVVLYELFTYCDKSCSPSAEFLRMMGCERDVPALCRLLELLEEGQRLPAPPACPAEVHELMKLCWAPSPQDRPSFSALGPQLDMLWSGSRGCETHAFTAHPEGKHHSLSFS
Decrease in Wild type Phosphorylation [2]: 50% | phosphorylation of wildtype GST-SIGLECBMS-L3cyto (kinase ELISA, anti p-Tyr HRP) [3]: JAK3 (92%) | Decrease in Wild type Phosphorylation [4]: 25%

B3: emt kinase (protein)
chain: MNNFILLEEQLIKKSQQKRRTSPSNFKVRFFVLTKASLAYFEDRHGKKRTLKGSIELSRIKCVEIVKSDISIPCHYKYPFQVVHDNYLLYVFAPDRESRQRWVLALKEETRNNNSLVPKYHPNFWMDGKWRCCSQLEKLATGCAQYDPTKNASKKPLPPTPEDNRRPLWEPEETVVIALYDYQTNDPQELALRRNEEYCLLDSSEIHWWRVQDRNGHEGYVPSSYLVEKSPNNLETYEWYNKSISRDKAEKLLLDTGKEGAFMVRDSRTAGTYTVSVFTKAVVSENNPCIKHYHIKETNDNPKRYYVAEKYVFDSIPLLINYHQHNGGGLVTRLRYPVCFGRQKAPVTAGLRYGKWVIDPSELTFVQEIGSGQFGLVHLGYWLNKDKVAIKTIREGAMSEEDFIEEAEVMMKLSHPKLVQLYGVCLEQAPICLVFEFMEHGCLSDYLRTQRGLFAAETLLGMCLDVCEGMAYLEEACVIHRDLAARNCLVGENQVIKVSDFGMTRFVLDDQYTSSTGTKFPVKWASPEVFSFSRYSSKSDVWSFGVLMWEVFSEGKIPYENRSNSEVVEDISTGFRLYKPRLASTHVYQIMNHCWKERPEDRPAFSRLLRQLAEIAESGL
Decrease in Wild type Phosphorylation [2]: 70% | phosphorylation of wildtype GST-SIGLECBMS-L3cyto (kinase ELISA, anti p-Tyr HRP) [3]: emt(65%)
